Experiment: yeast display, Sf9 membrane polyspecificity reagent, FACS + sequencing; frameworks hold sequencing errors
Procedure, shortened: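 A nanobody's polyreactivity label depends on the gate it was sorted from. Yeast display cells were stained with 10% biotinylated, detergent-solubilized Sf9 membrane reagent for 1 hour at 4 °C, enriched on streptavidin microbeads and sorted by FACS. The low and high (top ~1%) gates were set on anti-HA fluorescence for expression and streptavidin fluorescence for reagent binding.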

Row | Sequence | polyreactivity (PSR sort gate)
1 | QVQLVESGGGLVQAGGSLRLSCAASGITIYGYAMGWYRQAPGKERELVAAITRSGGGTYYADSVKGRFTISRDNEKNTVYLQMISLKPEDTAVYYCAADSYSQYTMDYWGQGTQVTVSS | high polyreactivity
2 | QVQLVESGGGLVQAGGSLRLSCAASGRTFSPYAMAWYRQAPGKEREFVAAIRVRGGSTYYADSVKGRFTISRDNAKNTVYLQMNSLKPEDTAVYYCNAQYLVYNGYPYLYDYWGQGTQVTVSS | high polyreactivity
3 | QVQLQESVGGLVQAGGSLRLSCAASGNIFPTDRMGWYRQAPGKELEFVATISHGGSTNYADSVKGRFTISRDNAKNTVYLQMNSLKPEDTAVYYCAVWSLGRWRHYYWGQGTQVTVRS | low polyreactivity
4 | QDQLVESGGGLVQAGGSLRLSCAASGSTFKYYAMGWYRQAPGKERELVAAISWTGGSTYYADSVKGRFTISRDNAKNTVYLQMNSLKPEDTAVYYCNAMGHVQGYDYWGQVTQVTVSS | high polyreactivity
5 | QVQLVDSCGGLVQAGGSLRLSFAASGRIYGPYAMGWYRQAPGKERELVAAISFSGSGTYYADSVKGRFTISRDNAKNTVYLQMNSLKPEDTAVYYCAADRWAHTHRLGYWGQGTQVTVSS | low polyreactivity
6 | QVQLVESGGGLVQAGGSLRLSCAASGFTLEYNAMGWYRQAPGKERELVAAIDGDGTTYYADSVKGRFTISRDNAKNTVYLQMNSLKPEDTAVYYCNTRTTPYYAQGITRIEYDYWGQGTQVTVSS | low polyreactivity
7 | QVHLVESGGGLVQAGGSLRLSCAASGRIYRVNGMGWYRQAPGTERELVAAIRRSGGSTYYADSVKGRFTISRDIAKNTVYLQMNSLKPEDTAVYYCAARVRQSSYTRYDSWGQGTQVTVSS | high polyreactivity
8 | QVQLVESGGGLVQAGGSLRLSCAASGSTFAWYAMGWYRQATGKETELVAVITRRGGSTYYADSVKGRFTISRDNAKNTVYLQMNSLKPEDTAVYYCAAEYQVSHWYRTASVYDYDSWGQGTQVTVSS | high polyreactivity
9 | QVQLVQSGGGLVQERGSLRLSCAASGRIFVKYTMGWSRQAPGKERELVAAIDFDTDSTYYADSVTGRFTISRDNAKNTVYLQMYSLKPEDTAVYYCATGYLYFTSYRYNYWGQGTQVTVSS | low polyreactivity
10 | QVQLVESGGGLVQAGGSLRLSCAASGSIFVKNAMGWYRQAPGKERELVARITYSGGSTYYADSVKGRFTISRDNAKNTVYLQMNSLKPEDTAVYYCAARYWYFPQTYYPGNDYWGQGTQVTVSS | high polyreactivity
11 | QVQLVESGGGLVQAGGSLRLSCAASGRIFSRNTMGWYRQAPGKERELVATITSAGSTTYADSVKGRFTISRDNAKNTVYLQMNRLKPEDTAVYYCAARSWKRRVGRDYWGQGTQVTVSS | high polyreactivity
12 | QVQLVESGGGLVQAGGSLRLSCAASGFTFLKNAMGWYRQAPGKERELVAAITSSGGRTYYADSVKGRFTISRDNAKNTVYLQMNSLKPEDTAVYFCIKGPLPGYDYWGQGTQVTVSS | high polyreactivity
13 | QVQLVESGGGLVQAGGSLSLICAASGFIFYYYAMGWYRQAPGKERELVAGMSRRGGSTYYADSVKGRFTISRDNAKNTVYLQMNSLKPEDTAVYYCAALGDDATSYGYWGQGTQVTVSS | high polyreactivity
14 | QVQLVESGGGLVQAGGSLRLSCAATGSTIRSYGMGWYRQAPGKERELVASISWSGGSTYYADSVKGRFTISRDNAKNTVYLQMNSLKPEDTAVYYCAAGTLYSLYFGRHGYWGQGTQVTVSS | low polyreactivity
15 | QVQLVESGGGLVQAGGSLRLSCAASGFTFRYYAMGWYRQAPGKERELVASISARGGITNYADSVKGRFTISRDNAKISVYLQMNSLKPEDTAVYYCAADVFSWYGEYDYWGQGTQVTVSS | high polyreactivity
16 | QVQLVESGGGLVQAGGSLRLSCAASGRTFPFYAMGWYRPAPGKERELVAAIHSGGITNYADSVKGRFTISRDNAKNTVYLQMNSLKPEDYAVYDCAALTAFYRERGYWGEGTQVTVSS | low polyreactivity
17 | QVQLVESGGGLVQAGGSLRLSCAASGLTFHRYAMGWYRQAPGKERELVAAINYSGGRTYYADSVKGRFTISRDNAKNTLYLQMNSLKPEDTAVYYCAAPRASGYYWGQGTQVTVSS | high polyreactivity
18 | QVHLVESGGGLVQAGGSLRLSCAASGSIFGPYMGWYRQAPGKERELVASVVSTYYADSVKGRFTISRDNAKNTVYLQMNSLKPEYTAVYYCNTQDTKNKSSVFVPSDYWGQGTQVTVSS | low polyreactivity
19 | QVQLVESGGGLVQAGGSLRLSCAASGRIFTQNAMGWYRQAPGKERELVAAITSGGSTYYADSVKGRFTISRDNAKNTVYLQMNSLKPEDTAVYYCAKRYPYYLSTMEYWGQGTQVTVSS | low polyreactivity
20 | QVQLVESGGGLVQAGGSLRLSCAPSGSIFDCNAMGWYRQAPGKERELVAAISVSGGSTYYADSVKGRFTISRDNAKNTVYLQMNSLKPEDKAVYYCAAETWTDGWYYDYWGQGTQVTVSS | high polyreactivity
21 | QVQLVESGGGLVQAGGSLRLSCAASGSTFVIYGMGWYRQAPGKERELVADITWIGGSTYYADSVKGRFTISRDNAKNTVYLQMNSLKPEDTAVYYCNADVRYGRDHWGQGTQVTVSS | low polyreactivity
22 | QVQLVESGGGLVQAGGSLRLSCAASGFIFRYYAMGWYRQAPGKERELVAAINASGGRTYYADSVKGRFTISRDNARNTVYFQMNSLKPEDSAVYYCAAYRSYQTFDYWGQGTQVTVSS | high polyreactivity

Row | Sequence | polyreactivity (PSR sort gate)
23 | QVQLVESGGGLVQAGGSLRLSCAASGFTFYRYTMGWYRQAPGKERELFAAISARGVSTYYADSVKGRFTISRDNAKNTVYLQMNSLKPEDTAVYYCYVSRYDTWGQGTQVTVTS | high polyreactivity
24 | QVQLVESGGGLVQAGGSLRISCAASGIIFGEYAMGWYRQAPGKERELVAAISQSGGTYYADSVKGRFTISRDNAKNTVYLQMNSLKPEDTAVYYCNADYWAYISRVRYDYWGQGTQVTVSS | low polyreactivity
25 | QVQLVESGGGLVQAGGSLRLSCAASGITLTKYAMGWYRQAPGKERELVAAISKRGTNTYYADSVKGRFTISRDNAKNTVYLQMNSLKPEDTAVYYCNAPGHRQNGLGDYWGQGTQVTVSS | high polyreactivity
26 | QVQLVESGGGLVQAGGSLRLICAASGRIFGIYAMGWYRQAPGKERELVARITGGGSTNYADSVKGRFTISRDNPKNTVYLQMNSLNPEDTAVYYCAANVRRIVGNITRYDYWGQGTQVTVSS | low polyreactivity
27 | QVQLVESGGGLVQAGGILRISCAASGRNLSRNAMGWYRQAPGKERELVAAISRSGSRTYYADSVKGRFTISRDNAKNSVYLLMNSLKPEDTAVYYCNAESYLSGWWYDYWGQGTQVTVSS | high polyreactivity
28 | QVLLQESGGGLVQAGGSLRLCCAASGYISGDQFMGWYRQAPGKEREFVAGIGNGTNTNYADSVKGRFTTSRDNAKNTVYLQMNSLKPEDTAVYYCAADPSDGSTLAYWGQGTQVTVSS | high polyreactivity
29 | QVQLVESGGGLVQAGGSLRLSCAASGIIFVIYAMVWYRQAPGKERELVAAISSSGGSTYYADSVKGRFTISRDNAKNTVYLLMNSLKPEDTAVYYCAVALSHYFGGYGYWGQGTQLTVSS | low polyreactivity
30 | QVQLVESGGRLVQAGGSLRLSCAASGRTFIGYARGWYRQAPGKERELVAGISWSGGSTYYADSVKGRFTISRDNAKNTVYLQMNSLKPEDTAVYYCAARGRWSTEYGYWGQGTQVTVSS | low polyreactivity
31 | QDQLLESGAGLVQAGGSLRLSCAASGRIFDYNVMGWYRQAPGKERELVADITSSGGSTYYADSVKGRFTISRDNAKNTVYLQMNSLKPEDTAVYYCYISYFTIYDDFYYWGQGTQVTVSS | low polyreactivity
32 | QVQLVESGGGLVQAGGSLRLSCAATGRIFVNAMGWYRQAPGKERELVAAINTRGGSTYYADSVKGRFTISRDNAKNSVYLQMNSLKPEDTAVYYCAARFYTSSRYNYWGQGTQVTVSS | high polyreactivity
33 | QVQLVESGGGLVQAGGSLRLSCAASGRTFYKYAMGWSRQAPGKERELVAAISSDGTTYYADSVKGRFTISRDNAKNTVYLQMNSLKPEDTAVYYCAADPPPPFLYVSVQEYDYWGQGTQVTVSS | low polyreactivity
34 | QVQLVESGGGLVQAGGSLRLSCAASGRIFKRNVMGWYRQAPGKERELVAAIRYSGGNTYYADSVKGRFTISRDNAKNTVYLQMNSLKPEDTAVYYCAAQQWSYTQSRLYDMGYWGQGTQVTVSS | high polyreactivity
35 | QVQLVESGGGLVQAGGSLRLSCAASGSIFTPYAMGWSRQAPGKLRELVADISRSGSTNYADSVKGRFTISRDNAKNTVYLQMNSLKPEDTAVYYCNADFWWHWGTSYVYWGQGTQVTVSS | high polyreactivity
36 | QVQLVESGGGLVQAGGSLRLSCAASGITSTYYAMGWYRQAPGKERELVAAISVSGGSTYYADSVKGRFTISRDNAKNTVYLQMNSLKPEDTAVYYCTADSYHTYYYWYDYWGQGTQVTVSS | low polyreactivity
37 | QVQLVESGGGLVQAGGSLRLSCAASGLIFSGYAMGWYRQAPGKDRELVAAITWSGGRTYADSVKGRFTISRDNAKNTVYLQMNSLKPEDTAVYYCNADAYIDYWPYTWDYDYWGQGTQVTVSS | high polyreactivity
38 | QVQLVESGGGLVQAGGSLRLSCAASGSTFTSYTMGWYRQAPGKERELVARITRGGGSTYYADSVKGRFTISRDNAKNTVYLQMNSLKPEDTAVYYCNAEGYLLPVGNTMDYWGQGTQVTVSS | low polyreactivity
39 | QVQLVESGGGLVQAGGSLRLSCAASGSTFTANALGWYRQAPGKERELVAAITKSGGDTYYADSVKGRFTISRDNAKNTVYLQMNSLKPEDTAVYYCAAESSYFVALTQFYTVEFYYWGQGTQVTVSS | low polyreactivity
40 | QVQLVESGGGLVQAGGSLRLSCAASGYTFWDYALGCYRQAPGKERAFVAGISFSDGGTYYADSVKGRFTISRDNAKNTVYLQMNSLKPEDTAVYYCAATYPYSWVYSGYYYWGQGTQVTVSS | low polyreactivity
41 | QVQLVESGGGLVQAGGSLRLSCAASGRTFWYYAMGWYRQAPGKERELVASISRSGGSTYYADSVKGRFTISRDNAKNTVYLQMNSLKPEDTAVYYCARGSELGYYAWVYYWGQGTQVTVSS | high polyreactivity
42 | QVQLVESGGGLVQAGGSLRLSCAASGSTFKWYAMGWYRQAPGKERELVAAITVSGDSTYYADSVKGRFTISRDNAKNTVYLQMNSLKPEDTAVYYCAKDYQGITPYDYWGQGTQVTVSS | low polyreactivity
43 | QVQLVESGGGLVQAGGSLRLSCAASGSTFRWYAMGWYRQAPGKERELVAAITSGGSTNYADSVKGRFTISRDNAKNTVYLQMNSLKPEDTAVYYCNKVYPVVRYEPQYDYWGQGTQVTVSS | low polyreactivity

— the nanobody polyreactivity screen of Harvey et al. (2022)
